Assay: label from the status in PepcDB records
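Also: failed if final PepcDB status was selected cloned or expressed and not failed if soluble or beyond.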

| Sequence | protein production |
| --- | --- |
| MTNAEAVTVTNKQIIFPDYVTGFPKESDLKITTTTIDLRLPEGSTSVLVKNLYLSCDPYMRICMGKPDPLSSSLVPPYKTGVPIIGLGVSKVIDSGHPDYKKGDLLWGLVGWEEYSVITLTTYSHFKIEHTDVPLSYYTGLLGMPGMTAYAGFYEVCSPKKGETVFVSAASGAVGQLVGQFAKLMGCYVVGSAGSKEKVYLLKTKFGFDDAFNYKEEKDFSAALKRYFPEGIDIYFENVGGKMLDAVLINMKLHGRVAVCGMISQYNLVDPEGVHNLPTILYKRIQLQGFGVCDFYDKYPKFLDFVLPYIREGKITYVEDIAEGFESGPSALLGLFEGKNVGKQLFVVARE | failed |
| MTVLSPSLPHAAGIDAALVENPWLGLRRSGRYFQNAETEALFARALGYARAGVCVHLAGPAGLGKTTLALRIAQALGRPVAFMTGNEWLGSRDFIGGEIGQTVTSVVDRYIQSVRRTEQSARIDWKESILGQAMRCGQTFIYDEFTRASPEANAALLSVLEEGVLVSTDGASRHQYIEAHPDFRVLLTSNPHEYQGVKAAPDALIDRMVTLRLEEPSAPTLAGIVALRSGLDPATARRIVDLILSVQRSGEMQAPPSMRTAILVARLAAPLRLAGRLSDAALAEIAADVLRGRGLEADAAAFEAKLAAPTPGETARLEHHHHHH | failed |
| MKTPTSRPVVLCLSGHDPSGGAGLQADIEALLAQGCHAAPAVTALTVQDTVNVSDFRVLDREWVLAQANAVLADLPVAAVKLGMLGSLEMVDTVAEILAAHPHLPVVCDPVLRAGGGGALGKGDVGFAMRERLLPRATIATPNLPEARLLADLPEGSADQCAERLLEHCEHLLITGGHGDESEVHNRLYSRDGSRRTFTCQRLPGSYHGSGCTLASALAGRIALGEALHGAVQSALDYTWRTLRDAESPGHGQYVPRRLPTDFCH | failed |
| MIYWGMGMLVIAWLADGGISRLSDLIKEPLALGVLLFCGVWVLGLLWSDSAVIFQGKWRKYFILLTFIPLFSLLSRERLPWVTGALLCSYLGMVILGSYQWAMQEMQGISLLGMSYLHYSAALGIGVILAVFLGWETLSREKRWLSVLSWLIAILLLFLQFNQSARGILLATLMALLLMIVLRYRAEWRMLTGGLTAIMAMVILFATSSDIFHDRLQQAGTDLRSFQQGDYQTSVGYRLAMWDVGLHGIAEHPLLGHGSGMAKKYFDDSIITYKQGIYRNLPEFQETAHFHNELIEIGMHLGLLGILAFVFLLWCWFQIFRQNRMALLGSAIVCFICISGLTDTFLLYSGTPPFLLTVTAIAVCWRKYREDPDRIGQKYTSGERNGNQNPQMFLMSA | failed |
| MVLFVDFLLEWLEMMRTRVRETTYASYNSGIRQSIIPYFMDKKLTLTDIEENPKYLQDFYQHELSKGLSPNSVLRRHANIRKALQHAFHLGLIKSNPADRIERPKKQLEHHHHHH | failed |
| LRVFSSDGKLIAEFGEMRRTPIRFAEIPPNFINALLSAEDDNFANHYGVDPSSLMRAATQLVKSGHIQSGGSTITMQVAKNFFLTSERSFSRKTTEILLALQIERQLTKDEILELYVNKIYLGNRAYGIEAAAQVYYGKSIRDVSLAQMAMIAGLPKAPSRFNPLANA | failed |
| MPNTIRLHRVLSAPPERVYRAFLDPLALAKWLPPEGFVCKVLEHDARVGGAYKMEFLAFASGQKHAFGGRYLELVPGERIRYTDRFDDAGLPGDMITTITLAPLSCGADLSIVQEGIPDAIPPENCYLGWQQSLKQLAALVEPDMPGLEHHHHHH | not failed |
| MNSAPFLIFGGILAWLFVYFLRLRRFYAGEFLLGLFIFGIAITIQSIIQKASLVWFNVHAKLLISLWLGFLAGFIQEGIKYIFVKGMTPYKGAMVGLGFGIAEVILLAVVATLAGSSNVPLYLLVASATERFFAVVFHVASTSLLASSNLRIFLGVFTVHGLVDTLASYSQLSRVLNTPKVFLIEAVFGVFALFLLLISLPRIRVEKEEGPKW | failed |
| MDTEIHNPHIPGGRPPSRPAIAALTFVIFMSLTLASWSVVQDLQERHENTRFDKRVAEVIHKIEHHFSGYEQVLKGALGHLLASPSVSRNEWRTYVNALRINDRYPGIHGIGFAKYIPRSGLAAHTEEVRAEGFPSYKVWPGTPRQEYTSIIYLEPFTGSNLRAFGYDMFSNAVRRAAMSRARDTGEVALTRKVKLVQETGEDIQAGVLMYLPYYGAANLPKTVEERRASLGGYVYAPFRMVDFVRATLGSELDILDLRIFDGKAMAEDSLLFDSVKHRSGPSPVPKFKRVIPISLYGQTWALEASSRPAFEKAIKNYEALLVLLGGFVVSMLTAMVSFVLSGNKEKAAALGHVNKKLLLAMEEQQATTRELSNAKLRTERILESITDAFYTLDREWRFTYVNKEAENLLQRNREDLLGRVCWEEFKETAGTTFDREYHRALMENRTVTFEEFYVPLDEWFEVHAYPSEEGLTVYFRDITERKESEQARQEAHVRIRQQASLLDKATDAIIVFGMDNCIEFWNQGAERLYGWTSEEVMGREVEMLYDNVAVFDEANRALLSSGEWRGELAQRRRDQSMLNVEAHWTLVRNDDGEPQAIFAINTDITQRKSAENEILHLALYDSLTGLPNRRLLLDRLGHALAVSARNQRMGALLFIDLDNFKLLNDTLGHDMGDLLLRQVAPRLSSCVRESDTVARLGGDEFVVILMGDFGEDHDEALTQISTICERIRSAFIQPFNLDPYIHHITPSIGIALFNDQSQTTNELLKRADLAMYQAKASGRNAMRFFDPDMQAAMNARAILESELYKSWERNEFILHYQLQVDSRGIIGAEALVRWQHPRRGLLPPSEFIPQAEETGLILPLGEWVLETACNQLASWALQPETVQLNLSVNVSSLQFCQPDFVEQVISILDRTGANPQRLKLELTESILVHDMDDTIAKMMTLKARGVGFALDDFGIGYSSLYYLKRLPLDWVKIDRSFVRDVLTDNNDATIVRTILLLAKSMGLAVIAEGVETGAQKDFLASHGCTAYQGYLFSRPLPLEQFERFVQPAAGGAV | failed |
| MEMNRRRSRGFMIAKLMPFCKAVKSPTPSQDLYNNVHYTSSTTTSYARQPDFNNYVTATTPLPPKVSFLLQPSLAPEGKDMEKKLNMMAEKLIGRGINGVDDCVDARAASYISSVRERFKADQYCEKLTTVISLDDEN | failed |
| MDTKKIKTSCLINNYNYAAFLSEAVASTLRQTVKFDEIIIVDDASTDNSAEVIAKFAQQADIKYILKEKNQGQLSSFNEAFLNASGDIIFFLDADDAYEPEYLETVLNFYNRRSECDFVFCAYKKFGAVEGTFQDYEIDVDLGYSVIRTLCNGEWIGSITSTLSMRRDILRKVLPIPNTEDWRVRADDCLVWGASLVGAKKFYLSQPLVRYRIHQNNQFHNSKFVNTDKDYEYKRFWKRNSLFNYILQKNNLELPFLLAFTSLNELKTIPCPNNQDFISYLKIIFLFEKNVYWKIKGIFLLFNYLGKFLLNGKLQIR | failed |
| MEFNQFGQPIGHAIQQPIPGKFKAQSLIGNDVNLVLIEQDRVALKNVEQLWDCIKTEPDERCWTYLPYEAPETFRQLEYNLKRNFGFEPSFHYWIMVEGQAVGWIALMNLREQHAAVEIGNVYFSHRLKQTAAATEVIYLLLNHCFEQGLRRIEWKCDDLNGPSKRAALRFGFVYEGLFRQDRVSKGRNRDTTWFSIIDSEWASLKTAYLQWLNPDNFNHAGKQKKRLEDFIVT | failed |
| MPIKVKYYGNVVFASDAVCGQAENYATLKAMKEVGNYTISIQTFENAENVYPEEFLAKPVADEHYLTTEDGSVGIKGHYLDIVKELIEKDKVDIIFAGGKLGSLAKLAELTRPYGIPTLEHHHHHH | failed |
| MATFEEVSVLGFEEFDKAVKEHESKTIFAYFSGSKDTEGKSWCPDCVEAEPVIREGLKHVTEDCVFIYCQVGDKPYWKDPNNDFRQKLKITAVPTLLKYGTPQKLVESECCQSSLVEMIFSED | not failed |
| MTQMRFTEEDFNTFTIEGLDARMEVLKETVRPKLTALGEHFAPTLSALTGDEMFPHVAKHARRSVNPPADSWVAFANSKRGYKKLPHFQIGLWESHVFVWFAIIYESPIKEEYGKLLEVNQETITKNIPDSFVWSADHTKPGVHKQSEMDKEQLKTLFERLQTVKKAELLCGIQLQKEEVLNMNNQEFLQRIDDAFKQLAFLYRLTQKVTQALEHHHHHH | not failed |
| MFRSFPVDSPHVYLRWVAISISQPVIRHGSSVVFVGGTPASSFLWPLCINRQNQIQTHFLKSFRIQEFLPRKSQCSRVTTIKETIFYPICLKSSKQIIVNATTFQCINYLLPIQFAYRNEPFRKFFATRIDFSSNQIERTNHSNRI | failed |
| MAQPSTTYKFELNLTDLDRGVYESVKQTIARHPSETEERMTVRLLAYAFWYNEQLAFGRGLSDVDEPALWEKSLDDRVLHWIEVGQPDADRLTWCSRRTERTSLLAYGSLRVWEGKVIPAIKNLKNVNIAAVPQDVLEVLAKDMPRVIKWDVMISEGTVFVTDDRGQHEVQLQWLTGERG | not failed |
| MGHHHHHHSHMGNIPEAIASYRTALKLKPDFPDAYCNLAHCLQIVCDWTDYDERMKKLVSIVADQLEKNRLPSVHPHHSMLYPLSHGFRKAIAERHGNLCLDKINVLHKPPYEHPKDLKLSDGRLRVGYVSSDFGNHPTSHLMQSIPGMHNPDK | failed |
| MPQSAPPNTRQAVLWNDVSGKAWVEMQPILDEILAPFERLVVDAGYPREGGNVLDIGCGAGATTLAMARRVGNDGNCVGLDISQPLVALATERTKLGEVANASFEVGDAQTYAFESGHFDAAISRFGVMFFDDPMAAFTNIRKAVRRRGKLAFVAWRSPLENDFMTTAVRAAAPFLPPAPAPDPDAPGQFAFADGAKVRRILEASGWASIEVEQADVPCRIAQRDLMAYATRLGPLGAALREVDRATAERITTVLPAAFAPFVDDGEARFNAACWLVTALA | failed |
| SLLDVAVSPDDRFILTADRDEKIRVSWAAAPHSIESFCLGHTEFVSRISVVPTQPGLLLSSSGDGTLRLWEYRSGRQLHCCHLASLQELVDPQAPQKFAASRIAFWCQENCVALLCDGTSVVYIFQLDARRQQLVYRQQLAFQHQVWDVAFEETQGLWVLQDCQEAPLVLYRPVGDQWQSVPESTVLKKVSGVLRGNWAMLEGSAGADASFSSLYKATFDNVTSYLKKKEERLQQQLEKKQRRRSPPPGPDGHAKKMRPGEATLSC | failed |
| MFIHPHTSLTFEQCQKARVSRDSRFDGRFYVAVKTTGIFCRPICPANLPKEENVEYFTDKAQALKAGYRPCLRCRPDSAPGSWAWKGVETTFQRAISLIDRGELHHHSVSELAERVGISDRYLRMLFEQYLGMSPKQYAQYQQLMFAKQLLHSSSMSVTEVGFAAGFNSTRRFNDAFQKFLKLTPSQVRRREFDGVSTNRIALSYRGELNWQHMLDFYRLRAIEGVERVSGESYQRNVCLDNSKAWFKAIKGEGNLELEFEIEEVAKLQNLVSGIRRMFDLDTDICTVEQHLDYVAPGLVSNRGIRIPGVWNAWEAGVRAVLGQQVSVKAAIGQLNLLVKTLSGDADKRFFPTPDAIANADVSFLRMPQSRKETLVRFAQFMQSNAETDPQQWLALKGIGPWTVSYAQLRGQSQPDCFLDKDLVVKKAMQRYPSLNTHTAAPWGSYATFHLWNQS | failed |
| MRILLVSRPHPEGARDPFTSLLPTGLGYLNAVLRENGFTSSLANLSTASWRQVEELLRRERPAILGISVFTHNRFESLRLAALAKKVDPTCLTIFGGPHATHAFESILVKYREVDGVILGEGEETFLDLARAVERGDRSLTGIVGLAYRKGAKVHSVKRPPVADLDVLPLPALHMNDAWGCDVRRQLEFIITSRGCPAACRFCSSPRFWGKSLRFRSPRAMVDEIRAIRDRYGLIYFSLRDDTFTVRKDRVIDFCRLLLEEKVHILWNCQSRVNAVDEEMLIWMRRAGCECVQYGVESGSEKILAYLGKQITPEQVRRAAKATRRAGISLSIYLISGVPGETDDDLQATLTLISNILPHDGHVAPLAYYPGTALFDEAVREGRVGADLFERERGAALYVRRDPFVARSMETLLRALTRVERKARFGPADFTAQREFLGYCHGTNLGQGEWLEAKGDIGKAEALYREIVERQPENPWGWLALGGLHGSRGDVTRAGKAFERAISLVPAHVPAYLALGDLRLEEGDQRGAKQLYETAKRLNPRDTDVGERLRMVVAERGTKKGDT | failed |
